Experimental data: patent US8147838B2, “Peptide” (priority 2005, dated 2012)

Columns and labels:
Conditions in all cases: percent of positive control peptide binding; peptide at 1.11×10^−5M
[1] = biological target: MHC class I allele B*0702 (B7) (Homo sapiens, UniProt P01889); assay: iTopia peptide binding assay, B*0702
Method: (§1) The 9 mers were tested for Peptide Binding, Off Rate and Affinity using iTopia Epitope Discovery System in accordance with the manufacturer's instructions. Briefly, 96 well microtitre plates coated with MHC molecules representing different MHC alleles are used to identify candidate peptides. […] Determinations are performed in duplicate using an ELISA plate reader and included allele specific positive controls.
(§2) i) Peptide Binding—This assay measures the ability of individual peptides to bind to the MHC molecules under standardized optimal binding conditions. The assay is performed for all the test peptides across the selected MHC alleles. The test peptides identified as “binders” are characterized further in terms of affinity and dissociation experiments.
(§3) Following a period of binding under optimal conditions, excess antibody is removed and a measurement of total fluorescence taken (D).
(§4) The binding of the test peptides to the MHC molecules was performed at 1.11×10^−5M of peptide under optimal, standardised test conditions. A control peptide was run in parallel on the same plate and at the same concentration as the test peptides.
(§5) The level of binding is expressed as a percent of positive control peptide binding for each allele.

[2] = biological target: MHC class I allele A*0301 (A3) (Homo sapiens, UniProt P04439); assay: iTopia peptide binding assay, A*0301
Method: as §1, §2, §3, §4, §5

[3] = biological target: MHC class I allele A*0201 (A2) (Homo sapiens, UniProt P04439, D140Y/D185E/D98H/E176V/E277Q/G131W/G231S/I119V/I121R/I166T/I218V/L300P/L318F/N151K/N90K/P208A/P217A/Q86G/Q94H/R138H/R169H/T345S); assay: iTopia peptide binding assay, A*0201
Method: as §1, §2, §3, §4, §5

[4] = biological target: MHC class I allele A*0101 (A1) (Homo sapiens, UniProt P04439, A114D/A174V/A182V/D101N/D185E/E176A/E190D/L180R/Q94H/R68K/S129P/T187R/V100A/V91M/W191G); assay: iTopia peptide binding assay, A*0101
Method: as §1, §2, §3, §4, §5

Sequence	Peptide binding, MHC Class I Molecule B*0702 [1]	Peptide binding, MHC Class I Molecule A*0301 [2]	Peptide binding, MHC Class I Molecule A*0201 [3]	Peptide binding, MHC Class I Molecule A*0101 [4]
INADPRLTN [Peptide 203]	4 % of control	1 % of control	3 % of control	0 % of control
IRVFLDNNP [Peptide 144]	5 % of control	3 % of control	4 % of control	0 % of control
IVPPEDERQ [Peptide 92]	3 % of control	3 % of control	12 % of control	6 % of control
KGIKKWMHN [Peptide 190]	6 % of control	3 % of control	14 % of control	3 % of control
LCECSEAAR [Peptide 33]	0 % of control	0 % of control	8 % of control	3 % of control
LDNNPWVCD [Peptide 146]	3 % of control	2 % of control	0 % of control	0 % of control
LELNSADLD [Peptide 168]	3 % of control	5 % of control	3 % of control	0 % of control
LGIVLALIG [Peptide 180]	0 % of control	1 % of control	10 % of control	0 % of control
LHLEDNALK [Peptide 132]	0 % of control	5 % of control	4 % of control	4 % of control
LKETEVVQG [Peptide 155]	3 % of control	4 % of control	3 % of control	0 % of control
LNLSGSRLD [Peptide 62]	7 % of control	2 % of control	7 % of control	2 % of control
LNSADLDCD [Peptide 169]	0 % of control	3 % of control	0 % of control	0 % of control
LPSLRHLDL [Peptide 117]	96 % of control	1 % of control	16 % of control	0 % of control
LPSLRQLDL [Peptide 71]	82 % of control	0 % of control	27 % of control	0 % of control
LTCAYPEKM [Peptide 161]	5 % of control	8 % of control	40 % of control	16 % of control
MRNRVLLEL [Peptide 165]	13 % of control	4 % of control	6 % of control	0 % of control
NGTLAELQG [Peptide 138]	0 % of control	3 % of control	9 % of control	3 % of control
NHIVPPEDE [Peptide 91]	5 % of control	3 % of control	11 % of control	6 % of control

Sequence	Peptide binding, MHC Class I Molecule B*0702 [1]	Peptide binding, MHC Class I Molecule A*0301 [2]	Peptide binding, MHC Class I Molecule A*0201 [3]	Peptide binding, MHC Class I Molecule A*0101 [4]
NNPWVCDCH [Peptide 147]	4 % of control	16 % of control	0 % of control	0 % of control
NNSLVSLTY [Peptide 122]	0 % of control	4 % of control	12 % of control	8 % of control
NRNLTEVPT [Peptide 40]	5 % of control	0 % of control	6 % of control	1 % of control
PAAGDGRLR [Peptide 5]	5 % of control	4 % of control	5 % of control	4 % of control
PAGAFARRP [Peptide 54]	7 % of control	3 % of control	4 % of control	2 % of control
PALCECSEA [Peptide 32]	0 % of control	0 % of control	19 % of control	4 % of control
PDQCPALCE [Peptide 30]	1 % of control	0 % of control	3 % of control	5 % of control
PFAFSGSNA [Peptide 80]	7 % of control	3 % of control	13 % of control	0 % of control
PHIRVFLDN [Peptide 143]	10 % of control	3 % of control	2 % of control	0 % of control
PPEDERQNR [Peptide 93]	0 % of control	0 % of control	2 % of control	0 % of control
PRLTNLSSN [Peptide 205]	11 % of control	2 % of control	8 % of control	2 % of control
PWVCDCHMA [Peptide 148]	0 % of control	0 % of control	0 % of control	0 % of control
QCPALCECS [Peptide 31]	0 % of control	0 % of control	2 % of control	3 % of control
QPPLPDQCP [Peptide 28]	3 % of control	1 % of control	5 % of control	6 % of control
RDHMEGYHY [Peptide 197]	5 % of control	3 % of control	6 % of control	11 % of control
RDVLAQLPS [Peptide 114]	4 % of control	3 % of control	15 % of control	1 % of control
RQLDLSHNP [Peptide 73]	4 % of control	2 % of control	8 % of control	2 % of control
RRLELASNH [Peptide 107]	3 % of control	3 % of control	5 % of control	0 % of control
